Test results as given in patent publication US20150299281A1 (ZEALAND PHARMA A S, published 2015).
Square brackets hold non-standard residues; d marks the D form. Aib = CC(C)(N)C(=O)O

T1: human GIP receptor (human, UniProt P48546 22-466)
T1 sequence (looked up): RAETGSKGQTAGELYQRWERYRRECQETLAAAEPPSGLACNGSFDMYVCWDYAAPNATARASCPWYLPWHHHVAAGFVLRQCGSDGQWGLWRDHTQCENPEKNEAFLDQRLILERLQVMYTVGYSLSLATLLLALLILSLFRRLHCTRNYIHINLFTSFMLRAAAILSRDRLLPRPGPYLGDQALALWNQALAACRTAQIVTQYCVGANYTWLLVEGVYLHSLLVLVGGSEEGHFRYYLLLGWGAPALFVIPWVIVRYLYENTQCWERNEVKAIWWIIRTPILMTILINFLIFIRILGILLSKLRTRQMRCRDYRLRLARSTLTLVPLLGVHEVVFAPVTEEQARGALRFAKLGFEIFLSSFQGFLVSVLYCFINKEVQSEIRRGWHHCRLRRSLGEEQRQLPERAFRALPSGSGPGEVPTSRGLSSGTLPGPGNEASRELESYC

B1: Compound 11 (peptide)
peptide: H-Y[Aib]EGTFTSDYLIYLDKKAQRAFVNWLLA[Aib]K-NH2
SMILES: CC[C@H](C)[C@H](NC(=O)[C@H](CC(C)C)NC(=O)[C@H](Cc1ccc(O)cc1)NC(=O)[C@H](CC(=O)O)NC(=O)[C@H](CO)NC(=O)[C@@H](NC(=O)[C@H](Cc1ccccc1)NC(=O)[C@@H](NC(=O)CNC(=O)[C@H](CCC(=O)O)NC(=O)C(C)(C)NC(=O)[C@@H](N)Cc1ccc(O)cc1)[C@@H](C)O)[C@@H](C)O)C(=O)N[C@@H](Cc1ccc(O)cc1)C(=O)N[C@@H](CC(C)C)C(=O)N[C@@H](CC(=O)O)C(=O)N[C@@H](CCCCN)C(=O)N[C@@H](CCCCN)C(=O)N[C@@H](C)C(=O)N[C@@H](CCC(N)=O)C(=O)N[C@@H](CCCNC(=N)N)C(=O)N[C@@H](C)C(=O)N[C@@H](Cc1ccccc1)C(=O)N[C@H](C(=O)N[C@@H](CC(N)=O)C(=O)N[C@@H](Cc1c[nH]c2ccccc12)C(=O)N[C@@H](CC(C)C)C(=O)N[C@@H](CC(C)C)C(=O)N[C@@H](C)C(=O)NC(C)(C)C(=O)N[C@@H](CCCCN)C(N)=O)C(C)C
B2: Compound 12 (peptide)
peptide: H-Y[Aib]EGTFTSDYSIALDKKAQRAFVNWLLA[Aib]K-NH2
SMILES: CC[C@H](C)[C@H](NC(=O)[C@H](CO)NC(=O)[C@H](Cc1ccc(O)cc1)NC(=O)[C@H](CC(=O)O)NC(=O)[C@H](CO)NC(=O)[C@@H](NC(=O)[C@H](Cc1ccccc1)NC(=O)[C@@H](NC(=O)CNC(=O)[C@H](CCC(=O)O)NC(=O)C(C)(C)NC(=O)[C@@H](N)Cc1ccc(O)cc1)[C@@H](C)O)[C@@H](C)O)C(=O)N[C@@H](C)C(=O)N[C@@H](CC(C)C)C(=O)N[C@@H](CC(=O)O)C(=O)N[C@@H](CCCCN)C(=O)N[C@@H](CCCCN)C(=O)N[C@@H](C)C(=O)N[C@@H](CCC(N)=O)C(=O)N[C@@H](CCCNC(=N)N)C(=O)N[C@@H](C)C(=O)N[C@@H](Cc1ccccc1)C(=O)N[C@H](C(=O)N[C@@H](CC(N)=O)C(=O)N[C@@H](Cc1c[nH]c2ccccc12)C(=O)N[C@@H](CC(C)C)C(=O)N[C@@H](CC(C)C)C(=O)N[C@@H](C)C(=O)NC(C)(C)C(=O)N[C@@H](CCCCN)C(N)=O)C(C)C
B3: Compound 8 (peptide)
peptide: H-Y[Aib]EGTFSSDYSIYLDKKAQRAFVNWLLA[Aib]K-NH2
SMILES: CC[C@H](C)[C@H](NC(=O)[C@H](CO)NC(=O)[C@H](Cc1ccc(O)cc1)NC(=O)[C@H](CC(=O)O)NC(=O)[C@H](CO)NC(=O)[C@H](CO)NC(=O)[C@H](Cc1ccccc1)NC(=O)[C@@H](NC(=O)CNC(=O)[C@H](CCC(=O)O)NC(=O)C(C)(C)NC(=O)[C@@H](N)Cc1ccc(O)cc1)[C@@H](C)O)C(=O)N[C@@H](Cc1ccc(O)cc1)C(=O)N[C@@H](CC(C)C)C(=O)N[C@@H](CC(=O)O)C(=O)N[C@@H](CCCCN)C(=O)N[C@@H](CCCCN)C(=O)N[C@@H](C)C(=O)N[C@@H](CCC(N)=O)C(=O)N[C@@H](CCCNC(=N)N)C(=O)N[C@@H](C)C(=O)N[C@@H](Cc1ccccc1)C(=O)N[C@H](C(=O)N[C@@H](CC(N)=O)C(=O)N[C@@H](Cc1c[nH]c2ccccc12)C(=O)N[C@@H](CC(C)C)C(=O)N[C@@H](CC(C)C)C(=O)N[C@@H](C)C(=O)NC(C)(C)C(=O)N[C@@H](CCCCN)C(N)=O)C(C)C
B4: Compound 14 (peptide)
peptide: H-Y[Aib]EGTFTSDYSIYLEKKAQRAFVNWLLA[Aib]K-NH2
SMILES: CC[C@H](C)[C@H](NC(=O)[C@H](CO)NC(=O)[C@H](Cc1ccc(O)cc1)NC(=O)[C@H](CC(=O)O)NC(=O)[C@H](CO)NC(=O)[C@@H](NC(=O)[C@H](Cc1ccccc1)NC(=O)[C@@H](NC(=O)CNC(=O)[C@H](CCC(=O)O)NC(=O)C(C)(C)NC(=O)[C@@H](N)Cc1ccc(O)cc1)[C@@H](C)O)[C@@H](C)O)C(=O)N[C@@H](Cc1ccc(O)cc1)C(=O)N[C@@H](CC(C)C)C(=O)N[C@@H](CCC(=O)O)C(=O)N[C@@H](CCCCN)C(=O)N[C@@H](CCCCN)C(=O)N[C@@H](C)C(=O)N[C@@H](CCC(N)=O)C(=O)N[C@@H](CCCNC(=N)N)C(=O)N[C@@H](C)C(=O)N[C@@H](Cc1ccccc1)C(=O)N[C@H](C(=O)N[C@@H](CC(N)=O)C(=O)N[C@@H](Cc1c[nH]c2ccccc12)C(=O)N[C@@H](CC(C)C)C(=O)N[C@@H](CC(C)C)C(=O)N[C@@H](C)C(=O)NC(C)(C)C(=O)N[C@@H](CCCCN)C(N)=O)C(C)C
B5: Compound 15 (peptide)
peptide: H-Y[Aib]EGTFTSDYSIALEKKAQRAFVNWLLA[Aib]K-NH2
SMILES: CC[C@H](C)[C@H](NC(=O)[C@H](CO)NC(=O)[C@H](Cc1ccc(O)cc1)NC(=O)[C@H](CC(=O)O)NC(=O)[C@H](CO)NC(=O)[C@@H](NC(=O)[C@H](Cc1ccccc1)NC(=O)[C@@H](NC(=O)CNC(=O)[C@H](CCC(=O)O)NC(=O)C(C)(C)NC(=O)[C@@H](N)Cc1ccc(O)cc1)[C@@H](C)O)[C@@H](C)O)C(=O)N[C@@H](C)C(=O)N[C@@H](CC(C)C)C(=O)N[C@@H](CCC(=O)O)C(=O)N[C@@H](CCCCN)C(=O)N[C@@H](CCCCN)C(=O)N[C@@H](C)C(=O)N[C@@H](CCC(N)=O)C(=O)N[C@@H](CCCNC(=N)N)C(=O)N[C@@H](C)C(=O)N[C@@H](Cc1ccccc1)C(=O)N[C@H](C(=O)N[C@@H](CC(N)=O)C(=O)N[C@@H](Cc1c[nH]c2ccccc12)C(=O)N[C@@H](CC(C)C)C(=O)N[C@@H](CC(C)C)C(=O)N[C@@H](C)C(=O)NC(C)(C)C(=O)N[C@@H](CCCCN)C(N)=O)C(C)C
B6: Compound 13 (peptide)
peptide: H-Y[Aib]EGTFTSDYSIYSDKKAQRAFVNWLLA[Aib]K-NH2
SMILES: CC[C@H](C)[C@H](NC(=O)[C@H](CO)NC(=O)[C@H](Cc1ccc(O)cc1)NC(=O)[C@H](CC(=O)O)NC(=O)[C@H](CO)NC(=O)[C@@H](NC(=O)[C@H](Cc1ccccc1)NC(=O)[C@@H](NC(=O)CNC(=O)[C@H](CCC(=O)O)NC(=O)C(C)(C)NC(=O)[C@@H](N)Cc1ccc(O)cc1)[C@@H](C)O)[C@@H](C)O)C(=O)N[C@@H](Cc1ccc(O)cc1)C(=O)N[C@@H](CO)C(=O)N[C@@H](CC(=O)O)C(=O)N[C@@H](CCCCN)C(=O)N[C@@H](CCCCN)C(=O)N[C@@H](C)C(=O)N[C@@H](CCC(N)=O)C(=O)N[C@@H](CCCNC(=N)N)C(=O)N[C@@H](C)C(=O)N[C@@H](Cc1ccccc1)C(=O)N[C@H](C(=O)N[C@@H](CC(N)=O)C(=O)N[C@@H](Cc1c[nH]c2ccccc12)C(=O)N[C@@H](CC(C)C)C(=O)N[C@@H](CC(C)C)C(=O)N[C@@H](C)C(=O)NC(C)(C)C(=O)N[C@@H](CCCCN)C(N)=O)C(C)C
B7: Compound 16 (peptide)
peptide: H-Y[Aib]EGTFTSDYSIYLDSKAQRAFVNWLLA[Aib]K-NH2
SMILES: CC[C@H](C)[C@H](NC(=O)[C@H](CO)NC(=O)[C@H](Cc1ccc(O)cc1)NC(=O)[C@H](CC(=O)O)NC(=O)[C@H](CO)NC(=O)[C@@H](NC(=O)[C@H](Cc1ccccc1)NC(=O)[C@@H](NC(=O)CNC(=O)[C@H](CCC(=O)O)NC(=O)C(C)(C)NC(=O)[C@@H](N)Cc1ccc(O)cc1)[C@@H](C)O)[C@@H](C)O)C(=O)N[C@@H](Cc1ccc(O)cc1)C(=O)N[C@@H](CC(C)C)C(=O)N[C@@H](CC(=O)O)C(=O)N[C@@H](CO)C(=O)N[C@@H](CCCCN)C(=O)N[C@@H](C)C(=O)N[C@@H](CCC(N)=O)C(=O)N[C@@H](CCCNC(=N)N)C(=O)N[C@@H](C)C(=O)N[C@@H](Cc1ccccc1)C(=O)N[C@H](C(=O)N[C@@H](CC(N)=O)C(=O)N[C@@H](Cc1c[nH]c2ccccc12)C(=O)N[C@@H](CC(C)C)C(=O)N[C@@H](CC(C)C)C(=O)N[C@@H](C)C(=O)NC(C)(C)C(=O)N[C@@H](CCCCN)C(N)=O)C(C)C

How the values were obtained:
human GIP receptor = molecular target: T1, human GIP receptor; assay: cell-based or functional assay
human GLP-1 receptor = human GLP-1 receptor (human, UniProt P43220 24-463); assay: cell-based or functional assay

| Binder | EC50, cAMP induction in HEK293 cells expressing human GIP R (human GIP receptor) | EC50, cAMP induction in HEK293 cells expressing human GLP-1 R (human GLP-1 receptor) |
| --- | --- | --- |
| B1 | 0.76 nM | 0.47 nM |
| B2 | 0.05 nM | 0.01 nM |
| B3 | 0.1 nM | 0.029 nM |
| B4 | 0.036 nM | 0.0087 nM |
| B5 | 0.06 nM | 0.01 nM |
| B6 | 0.14 nM | 0.032 nM |
| B7 | 0.053 nM | 0.012 nM |
